Test [1] has as its target T1, human FLT3 (hFLT3) expressed on cells (human, UniProt P36888 27-993).
T1 construct: whole, on cells; One molecule for all cell lines that carry human FLT3; also called RMA-hFLT3; FLT3 on REH cells
T1 sequence (looked up): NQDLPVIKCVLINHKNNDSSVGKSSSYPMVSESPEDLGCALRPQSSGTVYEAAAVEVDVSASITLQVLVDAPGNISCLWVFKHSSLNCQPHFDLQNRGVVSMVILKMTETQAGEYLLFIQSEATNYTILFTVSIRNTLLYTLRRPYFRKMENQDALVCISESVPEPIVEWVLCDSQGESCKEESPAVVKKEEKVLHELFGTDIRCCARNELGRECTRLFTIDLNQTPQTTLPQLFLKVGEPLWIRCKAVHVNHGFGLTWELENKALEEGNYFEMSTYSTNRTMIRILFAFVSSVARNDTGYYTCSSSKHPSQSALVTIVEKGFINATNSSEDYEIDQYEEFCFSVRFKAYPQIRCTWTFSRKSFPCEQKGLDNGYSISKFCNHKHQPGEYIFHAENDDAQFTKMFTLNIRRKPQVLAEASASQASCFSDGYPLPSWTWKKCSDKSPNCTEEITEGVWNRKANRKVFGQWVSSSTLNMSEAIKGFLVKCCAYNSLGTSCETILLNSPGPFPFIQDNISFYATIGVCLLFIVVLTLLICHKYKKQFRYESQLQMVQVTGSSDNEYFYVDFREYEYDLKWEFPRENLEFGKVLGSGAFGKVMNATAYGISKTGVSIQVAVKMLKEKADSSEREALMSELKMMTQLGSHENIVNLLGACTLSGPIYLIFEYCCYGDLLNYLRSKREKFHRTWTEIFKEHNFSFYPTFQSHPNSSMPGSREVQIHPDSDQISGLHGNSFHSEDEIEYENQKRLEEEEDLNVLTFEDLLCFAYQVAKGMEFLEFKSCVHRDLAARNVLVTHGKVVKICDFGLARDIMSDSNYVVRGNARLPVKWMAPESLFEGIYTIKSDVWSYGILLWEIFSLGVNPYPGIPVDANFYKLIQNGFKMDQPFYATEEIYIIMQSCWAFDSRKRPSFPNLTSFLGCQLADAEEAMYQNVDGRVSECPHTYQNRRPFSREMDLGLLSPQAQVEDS
Nature of the test: flow cytometry, purified mAb on RMA-hFLT3 cells. For orientation: Flow cytometry measures light scatter and fluorescence of single cells or particles in a stream.

The target of test [2] is T2, cynomolgus monkey FLT3 (cFLT3) expressed on RMA cells (cynomolgus monkey, UniProt A0A2K5VQ48 27-993).
T2 construct: whole, on cells; also called RMA-cFLT3; cynomolgus FLT3
T2 sequence: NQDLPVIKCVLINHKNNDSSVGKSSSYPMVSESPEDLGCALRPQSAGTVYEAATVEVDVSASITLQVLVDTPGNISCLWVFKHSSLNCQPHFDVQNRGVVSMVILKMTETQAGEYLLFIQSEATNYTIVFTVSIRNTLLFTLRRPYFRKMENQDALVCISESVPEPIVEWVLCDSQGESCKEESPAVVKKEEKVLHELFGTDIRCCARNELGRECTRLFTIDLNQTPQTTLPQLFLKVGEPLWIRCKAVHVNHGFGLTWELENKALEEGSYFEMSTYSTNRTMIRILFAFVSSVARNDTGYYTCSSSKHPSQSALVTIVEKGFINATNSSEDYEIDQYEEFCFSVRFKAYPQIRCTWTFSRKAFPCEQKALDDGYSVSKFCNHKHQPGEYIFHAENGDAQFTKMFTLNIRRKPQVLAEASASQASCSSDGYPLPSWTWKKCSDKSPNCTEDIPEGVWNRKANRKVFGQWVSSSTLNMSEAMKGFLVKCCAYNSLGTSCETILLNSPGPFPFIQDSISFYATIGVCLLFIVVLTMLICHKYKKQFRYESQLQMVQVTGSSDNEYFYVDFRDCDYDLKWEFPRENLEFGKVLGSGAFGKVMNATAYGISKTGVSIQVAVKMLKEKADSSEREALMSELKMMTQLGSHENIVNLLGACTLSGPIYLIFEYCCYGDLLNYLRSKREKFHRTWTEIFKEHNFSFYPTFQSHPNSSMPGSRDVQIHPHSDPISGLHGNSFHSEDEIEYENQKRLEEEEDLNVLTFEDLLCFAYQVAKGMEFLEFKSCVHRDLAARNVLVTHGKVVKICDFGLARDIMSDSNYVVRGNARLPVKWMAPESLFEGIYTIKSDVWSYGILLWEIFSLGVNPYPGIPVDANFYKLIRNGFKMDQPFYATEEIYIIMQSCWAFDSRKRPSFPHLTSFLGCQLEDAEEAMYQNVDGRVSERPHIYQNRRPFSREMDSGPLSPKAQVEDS
The experiment in a line: flow cytometry, purified mAb on RMA-cFLT3 cells.

Test [3] has as its target T3, hFLT3-His fusion protein (human, UniProt P36888 27-541, limits assumed).
T3 construct: Soluble recombinant antigen used for immunisation, ELISA, SPR and BLI binning; also called recombinant hFLT3 protein; not shown: His tag
T3 sequence (looked up): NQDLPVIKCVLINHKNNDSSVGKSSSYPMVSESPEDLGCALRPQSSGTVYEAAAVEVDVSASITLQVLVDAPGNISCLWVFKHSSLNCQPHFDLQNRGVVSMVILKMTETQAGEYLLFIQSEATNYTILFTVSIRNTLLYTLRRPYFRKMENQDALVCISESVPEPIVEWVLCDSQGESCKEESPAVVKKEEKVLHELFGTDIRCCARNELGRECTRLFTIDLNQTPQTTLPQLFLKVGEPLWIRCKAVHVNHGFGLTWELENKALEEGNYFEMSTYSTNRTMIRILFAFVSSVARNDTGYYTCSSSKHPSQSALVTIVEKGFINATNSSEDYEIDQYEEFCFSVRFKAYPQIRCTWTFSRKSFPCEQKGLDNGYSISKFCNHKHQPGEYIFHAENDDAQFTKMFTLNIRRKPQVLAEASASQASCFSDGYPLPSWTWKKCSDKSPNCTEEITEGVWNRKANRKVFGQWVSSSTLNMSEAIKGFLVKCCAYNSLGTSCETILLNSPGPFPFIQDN
Nature of the test: SPR, purified murine subclone mAb, hFLT3-His.

The target of test [4] is T1, human FLT3 (hFLT3) expressed on cells. The experiment in a line: flow cytometry, purified mAb on SEM cells.

Broadly, the EC50 is the concentration giving half of the maximal effect. As a reminder, the Kd is a measure of binding affinity in units of concentration. The term koff denotes a measure of how fast the partners let go of each other. Usually kon stands for the second-order rate constant of association.

B1: 1A2.A3 (antibody, V domains shown)
VH: EVQLQESGPELVKPGASVKISCKASGYSFTGYYIHWVKQSPEESLEWIGEIYPNTGITTYNQKFTAKATLTVDKSSNTAYMQLKSLTSEDSAVYYCTRWGDYYGRDYWGQGTSVTVSS
VL: DIVLTQSPASLAVSLGQRATISCRASETVDTHGNSFMHWYQQKPGQPPKLLIYRASNLESGIPARFSGSGSRTDFTLTINPVEADDVATYYCQQSNEDPRTFGGGTKLEIK
notes: Purified murine mAb from a hybridoma subclone
Regarding B1, in test [1], the response was half-maximal at 0.8 nM (EC50) and the “Max MFI” value stood at 499 MFI. Besides, in test [2], a half-maximal effect (EC50) was put at 1.82 nM and the “Max MFI” value worked out at 2830 MFI. In test [3], this molecule displayed a Kd of 8.5 nM, a koff of 0.00089 s⁻¹ and a kon of 110000 M⁻¹ s⁻¹. In test [4], the EC50 was 5.47 nM and the “Max MFI” value was 1360 MFI.

B2: 11F4.B9 (antibody, V domains shown)
VH: EVQLQESGPELVKPGASVKISCKASGYSFTGYYIHWVKQGPEKSLEWIGEIIPSTGSTIYNQKFKAKATLTVDKSSSTAYLQLKSLTSEDSAVYYCERWGDYYGRDYWGQGTSVTVSS
VL: DIVLTQSPASLAVSLGQRATISCRASESVDIYGNSFMHWYQQKPGQPPKLLIYRASNLESGIPARFSGSGSRTDFTLTINPVEADDVATYYCQQSNEDPRTFGGGTKLEIK
notes: as for B1
For B2, in test [1], it took 0.53 nM to reach a half-maximal effect (EC50) and the “Max MFI” value turned out to be 493 MFI. Also, in test [2], the midpoint of the response, the EC50, lay at 1.23 nM and the “Max MFI” value is 2590 MFI. Moreover, in test [3], binding was characterised by a dissociation constant (Kd) of 1.7 nM, the koff came out at 0.00025 s⁻¹ and the kon amounted to 150000 M⁻¹ s⁻¹. Moreover, in test [4], the EC50 is 2.43 nM and the “Max MFI” value worked out at 1140 MFI.

B3: 12C9.E5 (antibody, V domains shown)
VH: EVQLQESGAELVRPGASVKLSCKASGYIFTDYEIHWVKQTPVHGLEWIGAIDPETGITAYSQKFKGKATLTTDTSSSTAYMEFRSLTSEDSAVYYCTRGGLLYWGQGTSVTVSS
VL: DVVMTQTPLSLSVTIGQPASISCKSSQSLLYSDGETYLNWLQQRPGQSPKRLMYQVSKLDPGIPDRFSGSGSETDFTLKISRVEAEDLGIYYCLQGTFYPHTFGGGTKLEIK
notes: as for B1
Consider B3, for which the binding result in test [2] is recorded as “no binding”. In test [3], this molecule returned a Kd of 18.7 nM, a koff of 0.00063 s⁻¹ and a kon of 34000 M⁻¹ s⁻¹.

B4: 4H2.E3 (antibody, V domains shown)
VH: EVQLQESGPELVKPGASVKMSCKASGYTFTSYLMHWMKQKPGQGLEWIGYINPYSDGIKYNEKFRDKATLTSDKSSNTAYMELSSLTSEDSAVYYCAHSSGYVGYAMDYWGQGTSVTVSS
VL: GIVMTQTTPSVPVTPGESVSISCRSSKSLLHSNGNTYLYWFLQRPGQSPQLLIYRMSNLASGVPDRFSGSGSGTTFTLRISRVEAEDVGVYYCMQHLEYPFTFGSGTKLEIK
notes: as for B1
As to B4, in test [1], the EC50 amounted to 0.66 nM and the “Max MFI” value was determined as 696 MFI. In addition, in test [2], the EC50 turned out to be 1.56 nM and the “Max MFI” value came to 3450 MFI. In test [3], this molecule returned a Kd of 17.6 nM, a koff of 0.001 s⁻¹ and a kon of 57000 M⁻¹ s⁻¹. For the same molecule, in test [4], the 50% effective concentration (EC50) was 7.57 nM and the “Max MFI” value was determined as 1510 MFI.

B5: 12H10.G7 (antibody, V domains shown)
VH: EVQLQESGPELVKPGASVKMSCKASGYTFTRYVMHWVKQRPGQGLEWIGFINPYNDDTKYNEKFKGKATLTSDKSSSTAYMELSSLTSEDSAVYHCARWRQLGSLDSWGQGTTLTVSS
VL: NIVLTQSPASLAVSLGQRATISCRASESVDTYGSSFVHWYQQKPGQPPKLLIYLASNLESGVPARFSGSGSRSDFTLTIDPVEADDAATYYCQQNNEEPWTFGGGTKLEIK
notes: as for B1
For the molecule B5, in test [1], the EC50 worked out at 0.36 nM and the “Max MFI” value was 1140 MFI. In test [2], a half-maximal response (EC50) required 0.94 nM and the “Max MFI” value was found to be 5260 MFI. In test [3], this molecule had a dissociation constant (Kd) of 5.4 nM, a koff of 0.00055 s⁻¹ and a kon of 100000 M⁻¹ s⁻¹. For the same molecule, in test [4], a half-maximal response (EC50) required 3.2 nM and the “Max MFI” value is 2830 MFI.

B6: 14A5.E8 (antibody, V domains shown)
VH: EVQLQESGAELVQPGASVRLSCKASGYTFTSYWINWVKQRPGQGLEWIGNIYPGSSIINYNENFKNRATLTVDTSSSTAYMQLSSLTSDDSAVYYCARRVVYLYFDYWGQGTTLTVSS
VL: QIVLTQSPAIMSASPGEKVTMTCSASSSVSYMHWYQQKSGTSPKRWIYDTSKLASGVPARFSGSGSGTSYSLTISSMEAEDAATYYCQQWTSKSPTFGGGTKLEIK
notes: as for B1
In the case of B6, in test [1], the concentration for a half-maximal effect (EC50) is around 2.07 nM and the “Max MFI” value is 415 MFI. In test [2], it took 1.25 nM to reach a half-maximal effect (EC50) and the “Max MFI” value stood at 1780 MFI. In test [3], this molecule returned a dissociation constant Kd of 15.1 nM, a koff of 0.0019 s⁻¹ and a kon of 130000 M⁻¹ s⁻¹. In test [4], the EC50 was around 1.07 nM and the “Max MFI” value came out at 1960 MFI.

B7: 4A4.A3 (antibody, V domains shown)
VH: QVTLKESGPGILQPSQTLSLTCSFSGFSLTTYGMGVGWIRQPSGKGLEWLANIWFNDNKYYNSTLKSRLTISKDTSNNQVFLKISSVDTTDTATYYCAQITTVVGTFDYWGQGSPLTVSP
VL: RIVMTQSPTTMAASPGEKITITCSASSSISSIYLHWYQQKPGFSPKLLIFRTSDLASGVPPRFGGSGSGTSYSLTIGTMEAEDVATYYCQQGSSFPRTFGGGTKLEIK
notes: as for B1
Consider B7, for which, in test [1], a half-maximal effect (EC50) was put at 0.72 nM and the “Max MFI” value was 1020 MFI. In test [2], the response was half-maximal at 1.07 nM (EC50) and the “Max MFI” value was 5570 MFI. Also, in test [3], the Kd was determined as 7.3 nM, the koff is 0.00082 s⁻¹ and the kon turned out to be 110000 M⁻¹ s⁻¹. Also, in test [4], the response was half-maximal at 3.29 nM (EC50) and the “Max MFI” value worked out at 2350 MFI.

These data come from patent US20240117054A1 (DRAGONFLY THERAPEUTICS, published 2024).
